The results in this text go back to patent US20170137514A1 (Bristol-Myers Squibb, published 2017).

Positions count from the first letter of the chain named. Numbers in names are those of the source.

The target of experiment [1] is T1, soluble human LAG-3/Fc antigen (human, UniProt P18627 23-450).
T1 construct: also called huLAG-3-Fc; not shown: Fc part of the fusion
T1 sequence: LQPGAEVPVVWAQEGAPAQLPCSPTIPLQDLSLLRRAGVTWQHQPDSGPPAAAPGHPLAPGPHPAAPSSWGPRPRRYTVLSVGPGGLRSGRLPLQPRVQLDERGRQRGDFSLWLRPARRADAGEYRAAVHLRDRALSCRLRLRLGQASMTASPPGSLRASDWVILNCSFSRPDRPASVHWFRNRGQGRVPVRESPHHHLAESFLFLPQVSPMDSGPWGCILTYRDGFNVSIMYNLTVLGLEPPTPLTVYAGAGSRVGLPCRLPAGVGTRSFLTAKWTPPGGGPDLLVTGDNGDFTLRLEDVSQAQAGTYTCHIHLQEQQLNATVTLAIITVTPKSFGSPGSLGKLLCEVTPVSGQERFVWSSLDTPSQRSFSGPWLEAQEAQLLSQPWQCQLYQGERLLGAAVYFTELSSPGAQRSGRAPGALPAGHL
Description: BIACORE (surface plasmon resonance) with soluble human LAG-3/Fc antigen. (SPR reads the build-up and loss of mass on a sensor chip optically.)

The target in experiment [2] is T2, human LAG-3 on activated Hu CD4+ T cells.
T2 construct: differs from m5, which is LAG-3 transduced into 3A9 cells; also called native human LAG-3
T2 chain: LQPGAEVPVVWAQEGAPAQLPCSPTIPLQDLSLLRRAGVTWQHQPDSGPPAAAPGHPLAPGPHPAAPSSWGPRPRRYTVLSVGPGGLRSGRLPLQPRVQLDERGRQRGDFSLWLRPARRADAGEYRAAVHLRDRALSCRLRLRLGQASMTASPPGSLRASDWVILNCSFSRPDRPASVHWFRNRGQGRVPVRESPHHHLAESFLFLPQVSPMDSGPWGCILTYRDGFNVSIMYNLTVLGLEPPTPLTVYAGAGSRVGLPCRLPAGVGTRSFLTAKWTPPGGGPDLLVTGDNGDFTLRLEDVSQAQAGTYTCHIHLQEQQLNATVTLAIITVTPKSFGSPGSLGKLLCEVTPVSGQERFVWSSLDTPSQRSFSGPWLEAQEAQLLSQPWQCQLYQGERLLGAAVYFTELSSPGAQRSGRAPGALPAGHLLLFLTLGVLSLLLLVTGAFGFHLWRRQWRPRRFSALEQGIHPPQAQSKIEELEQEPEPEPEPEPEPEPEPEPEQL
Kind of experiment: flow cytometry on anti-CD3/anti-CD28-activated human CD4+ T cells (native LAG-3), PE anti-human Fc detection, FL2 GMFI. The protocol:
(§1) To test the ability of the antibody variants to bind to native human LAG-3 on the surface of activated human T cells, normal healthy donor peripheral blood mononuclear cells were stimulated in 15 cm tissue culture plates at a density of 2×10e6 cells/mL, with a combination of anti-CD3 (eBioscience, Cat #16-0037-85) and anti-CD28 (BD Bioscience, Cat #555725) antibodies present in solution at 5 μg/mL and 3 μg/mL, respectively. Following three days of stimulation cells were harvested, washed 1× with 1×PFAE buffer (1×PBS+2% FBS, 0.02% sodium azide, 2 mM Na EDTA), and resuspended in 1×PFAE buffer for staining.
(§2) For the binding reaction, 100 μl of this diluted antibody mixture was added to 2×10⁵ cells and the mixture was incubated on at 4° C. for 30 minutes. The cells were then washed two times with 1×PFAE buffer. A 1:200 dilution of PE-labeled goat anti-human Fcγ-specific antibody (Jackson ImmunoResearch, Cat. #109-116-170) was added and the mixture was incubated for 30 minutes at 4° C., followed by washing twice with cold 1×PFAE buffer. After the final wash, 150 μl of cold 1×PFAE was added to each solution and analysis of antibody binding was carried out by flow cytometry using a FACSCanto flow cytometer (BD Bioscience).
In general terms: Flow cytometry measures light scatter and fluorescence of single cells or particles in a stream.

Experiment [3] deals with T1, soluble human LAG-3/Fc antigen. Kind of experiment: Biacore (SPR); antibody kept in PBS.
The target is the same in experiment [4]. Description: Biacore (SPR); antibody after accelerated stress at pH 8 (5 days, 40 C).
Experiment [5] addresses T2, human LAG-3 on activated Hu CD4+ T cells. Kind of experiment: flow cytometry on activated human CD4+ T cells (donor WB1907), FL2 GMFI; forced stability study, sample not marked pH 8. The protocol:
as §1, §2

Experiment [6] shares this target. Description: flow cytometry on activated human CD4+ T cells (donor WB1907), FL2 GMFI; antibody after 5 days at 40 °C in pH 8.0 ammonium bicarbonate. The protocol: as §1, §2

B1: LAG3.6-G4P (antibody, V domains shown)
VH: QVQLQQWGAGLLKPSETLSLTCAVYGGSFSDYYWNWIRQPPGKGLEWIGEIIHSGSTNSNPSLKSRVTLSLDTSKNQFSLKLRSVTAADTAVYYCAFGYSDYEYNWFDPWGQGTLVTVSS
VL: EIVLTQSPATLSLSPGERATLSCRASQSISSYLAWYQQKPGQAPRLLIYDASNRATGIPARFSGSGSGTDFTLTISSLEPEDFAVYYCQQRSNWPLTFGQGTNLEIKR
notes: also called var2; copies: 2 + 2
B1: in experiment [1], the Kd amounted to 0.66 nM, the koff worked out at 0.000777 s⁻¹ and the kon stood at 1.18e+06 M⁻¹ s⁻¹. Further, in experiment [2], the EC50 amounted to 0.21 nM.

B2: LAG3.8 antibody variant of LAG3.1 (25F7) (antibody, V domains shown)
VH: B1 VH with I52N, S54I, S56N
VL: B1 VL
notes: It was made by site-directed mutagenesis of the LAG3.1 VH
On to B2, for which the Kd in experiment [3] and in experiment [4] was 0.25 nM throughout. Moreover, the koff in experiment [3] came out at 0.000368 s⁻¹; in experiment [4] it was 0.000402 s⁻¹. Also, the kon worked out at 1.47e+06 M⁻¹ s⁻¹ in experiment [3] and 1.62e+06 M⁻¹ s⁻¹ in experiment [4]. Further, the EC50 in experiment [5] worked out at 0.24 nM; in experiment [6] it was 0.21 nM.

B3: LAG3.7-G4P (antibody, V domains shown)
VH: B1 VH with I52N, S54G, S56G
VL: B1 VL
notes: also called var3; copies: 2 + 2
On to B3, for which, in experiment [1], the on-rate constant (kon) came to 1.04e+06 M⁻¹ s⁻¹. Further, the 50% effective concentration (EC50 (read off the curve)) in experiment [2] was roughly 0.3 nM.

B4: antibody 25F7 (LAG3.1), anti-human LAG-3 human monoclonal antibody (antibody, human IgG4 S228P, kappa, V domains shown)
VH: B1 VH with I52N, S54N, S56N
VL: B1 VL
notes: The heavy chain is human IgG4 with S228P; also called antibody LAG3.1
For the molecule B4, the Kd was determined as 0.21 nM in experiment [3], 0.2 nM in experiment [4] and 0.27 nM in experiment [1]. For the same molecule, the EC50 amounted to 0.13 nM in experiment [2] and 0.2 nM in experiment [6].

In general, Kd refers to the constant that tells how readily two partners part at equilibrium. For orientation: koff means a measure of how fast the partners let go of each other. A high value points to a short-lived complex. Broadly, the kon is the second-order rate constant of association. A higher kon goes with faster complex formation. The term EC50 denotes the midpoint of the concentration-response curve. Broadly, the EC50 (read off the curve) is the concentration needed to bring the measured effect to its halfway point.
